Holding throughout (settings): protein: recombinant; tags: C-terminal His6; label: 5' fluorescein or TAMRA (FA); unlabeled (NMR)
One series has as its target T1, Nrd1 307-491 K380A (Saccharomyces cerevisiae, UniProt P53617 307-491, K380A).
T1 sequence: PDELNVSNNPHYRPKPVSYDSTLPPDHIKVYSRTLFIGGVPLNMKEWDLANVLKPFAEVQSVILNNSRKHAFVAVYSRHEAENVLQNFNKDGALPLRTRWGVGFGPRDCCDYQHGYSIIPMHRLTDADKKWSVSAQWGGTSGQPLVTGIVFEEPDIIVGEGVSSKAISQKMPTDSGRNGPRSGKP
Description: fluorescence anisotropy; text says binding abolished; FA: 10 nM RNA, 50 mM sodium phosphate pH 8, 150 mM NaCl, 10 mM beta-mercaptoethanol, 20 C (protein stock in 300 mM NaCl); NMR: same buffer with 300 mM NaCl, 20. (In general: Polarisation of emitted light reports the rotation of a fluorescent probe.)

Another series addresses T2, Nrd1 307-491 R405A (Saccharomyces cerevisiae, UniProt P53617 307-491, R405A).
T2 sequence: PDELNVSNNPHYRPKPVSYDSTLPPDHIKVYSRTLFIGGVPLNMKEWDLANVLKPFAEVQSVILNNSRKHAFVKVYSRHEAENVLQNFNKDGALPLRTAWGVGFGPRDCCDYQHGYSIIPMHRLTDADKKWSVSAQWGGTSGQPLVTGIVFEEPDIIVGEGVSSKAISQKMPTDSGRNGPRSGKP
Description: fluorescence anisotropy; FA: 10 nM RNA, 50 mM sodium phosphate pH 8, 150 mM NaCl, 10 mM beta-mercaptoethanol, 20 C (protein stock in 300 mM NaCl); NMR: same buffer with 300 mM NaCl, 20.

A further series deals with T3, Nrd1 307-491 G344A (Saccharomyces cerevisiae, UniProt P53617 307-491, G344A).
T3 sequence: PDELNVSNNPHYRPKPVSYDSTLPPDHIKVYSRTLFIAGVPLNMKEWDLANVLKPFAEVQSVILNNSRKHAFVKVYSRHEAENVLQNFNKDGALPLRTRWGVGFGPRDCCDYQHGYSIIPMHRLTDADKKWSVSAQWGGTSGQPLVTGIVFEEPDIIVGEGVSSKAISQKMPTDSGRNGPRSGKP
The description is as above.

In the next series the target is T4, Nrd1 307-491 R429D (Saccharomyces cerevisiae, UniProt P53617 307-491, R429D).
T4 sequence: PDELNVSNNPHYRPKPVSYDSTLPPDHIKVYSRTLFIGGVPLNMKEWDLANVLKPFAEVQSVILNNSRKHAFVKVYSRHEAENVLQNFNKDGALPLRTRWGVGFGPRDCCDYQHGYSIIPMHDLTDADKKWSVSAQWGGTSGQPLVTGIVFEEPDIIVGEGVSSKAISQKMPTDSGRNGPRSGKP
Described as above.

A further series deals with T5, Nrd1 307-491 G409A (Saccharomyces cerevisiae, UniProt P53617 307-491, G409A).
T5 sequence: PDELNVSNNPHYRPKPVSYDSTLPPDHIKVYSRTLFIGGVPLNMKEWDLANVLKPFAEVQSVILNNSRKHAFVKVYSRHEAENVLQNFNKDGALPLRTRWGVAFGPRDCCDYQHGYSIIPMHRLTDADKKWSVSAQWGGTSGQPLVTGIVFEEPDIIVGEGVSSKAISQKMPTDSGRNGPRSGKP
The description is as above.

The next series has as its target T6, Nrd1 307-491 T340A (Saccharomyces cerevisiae, UniProt P53617 307-491, T340A).
T6 sequence: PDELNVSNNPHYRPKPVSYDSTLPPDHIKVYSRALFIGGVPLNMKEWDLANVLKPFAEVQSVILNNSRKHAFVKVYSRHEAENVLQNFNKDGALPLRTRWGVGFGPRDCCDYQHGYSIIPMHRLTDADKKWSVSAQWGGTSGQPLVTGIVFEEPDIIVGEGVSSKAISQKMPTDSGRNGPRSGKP
The description is as above.

For a further series, the target named is T7, Nrd1 307-491 Y382A (Saccharomyces cerevisiae, UniProt P53617 307-491, Y382A).
T7 sequence: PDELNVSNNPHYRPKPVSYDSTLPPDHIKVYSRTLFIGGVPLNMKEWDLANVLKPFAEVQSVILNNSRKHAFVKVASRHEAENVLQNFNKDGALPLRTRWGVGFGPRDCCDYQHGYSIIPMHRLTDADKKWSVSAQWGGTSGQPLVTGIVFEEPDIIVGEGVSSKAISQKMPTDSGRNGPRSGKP
The description is as above.

In another series the target is T8, Nrd1 307-491 K435D (Saccharomyces cerevisiae, UniProt P53617 307-491, K435D).
T8 sequence: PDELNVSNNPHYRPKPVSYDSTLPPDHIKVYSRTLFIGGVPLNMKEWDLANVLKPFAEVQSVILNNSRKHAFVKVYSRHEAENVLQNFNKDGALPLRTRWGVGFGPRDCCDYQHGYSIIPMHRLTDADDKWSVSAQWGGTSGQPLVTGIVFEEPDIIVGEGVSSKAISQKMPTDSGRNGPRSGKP
The series is described as above.

The text below walks through data of PMC4081072, “Structure and semi-sequence-specific RNA binding of Nrd1”.

For orientation: Kd means the equilibrium constant for the complex coming apart.

Turning to GUAA (ssRNA), the Kd with Nrd1 307-491 K380A was 442 ± 24.7 µM; with Nrd1 307-491 R405A it was 17.3 ± 0.9 µM; with Nrd1 307-491 G344A, 80.8 ± 2.2 µM; in the series with Nrd1 307-491 R429D, 24.1 ± 1.7 µM; in the series with Nrd1 307-491 G409A it was 157 ± 7.7 µM; with Nrd1 307-491 T340A, 153 ± 32.8 µM. For the same molecule, the Kd with Nrd1 307-491 Y382A is 32.1 ± 1.3 µM; with Nrd1 307-491 K435D, 16.2 ± 1.7 µM.
